For three molecules, Kd results are on record in publication PMC7988490, “Molecular insights into replication initiation in a multipartite genome harboring bacterium Deinococcus radiodurans” (The Journal of Biological Chemistry, 2020).

For series [1], the target named is T1, drDnaB (DnaB) (Deinococcus radiodurans R1 (ATCC13939)) (UniProt Q9RWW6).
T1 sequence: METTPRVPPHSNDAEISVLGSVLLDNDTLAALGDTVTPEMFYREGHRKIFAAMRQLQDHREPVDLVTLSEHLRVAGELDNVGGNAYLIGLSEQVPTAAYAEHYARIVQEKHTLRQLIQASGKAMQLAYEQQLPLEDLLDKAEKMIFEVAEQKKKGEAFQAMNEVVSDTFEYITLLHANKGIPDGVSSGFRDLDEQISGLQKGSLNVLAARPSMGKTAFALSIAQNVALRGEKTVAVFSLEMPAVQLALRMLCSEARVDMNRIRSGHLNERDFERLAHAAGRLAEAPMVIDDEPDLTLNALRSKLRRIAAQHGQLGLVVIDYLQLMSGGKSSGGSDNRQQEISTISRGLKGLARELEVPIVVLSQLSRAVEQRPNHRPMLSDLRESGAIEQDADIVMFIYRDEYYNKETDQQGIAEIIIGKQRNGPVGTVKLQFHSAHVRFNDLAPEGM
Nature of the series: EMSA. The note with it: nonspecific, EMSA: 50 mM Tris-HCl pH 8.0, 75 mM KCl, 5 mM MgSO4, 0.1 mM DTT, ~30 nM 32P-DNA, 37 C 15 min.

Series [2] addresses T2, drDnaB (DnaB) (Deinococcus radiodurans R1 (ATCC13939), UniProt Q9RWW6 1-448).
T2 sequence: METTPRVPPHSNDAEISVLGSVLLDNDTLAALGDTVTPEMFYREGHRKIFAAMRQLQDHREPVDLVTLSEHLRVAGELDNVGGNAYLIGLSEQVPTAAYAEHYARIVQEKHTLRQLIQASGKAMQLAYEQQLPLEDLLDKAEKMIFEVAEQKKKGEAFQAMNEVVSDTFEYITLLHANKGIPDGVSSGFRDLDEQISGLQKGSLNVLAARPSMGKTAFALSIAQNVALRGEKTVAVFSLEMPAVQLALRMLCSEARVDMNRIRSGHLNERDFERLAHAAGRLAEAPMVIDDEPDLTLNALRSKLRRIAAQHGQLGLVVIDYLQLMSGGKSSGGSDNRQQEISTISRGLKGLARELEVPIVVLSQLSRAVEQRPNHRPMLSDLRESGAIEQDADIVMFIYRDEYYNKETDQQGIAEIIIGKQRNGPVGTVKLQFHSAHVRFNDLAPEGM
Nature of the series: EMSA; ATPgS; EMSA: 50 mM Tris-HCl pH 8.0, 75 mM KCl, 5 mM MgSO4, 0.1 mM DTT, +/- 1 mM ATP, ~30 nM 32P-DNA, 37 C 15 min. The settings on record: protein: recombinant; tags: N-terminal 6xHis (pET28a); chain copies: 6; label: 32P 5' end.

The target of series [3] is T2, drDnaB (DnaB). Nature of the series: EMSA; no ATP; EMSA: 50 mM Tris-HCl pH 8.0, 75 mM KCl, 5 mM MgSO4, 0.1 mM DTT, +/- 1 mM ATP, ~30 nM 32P-DNA, 37 C 15 min. The note with it: protein: recombinant; tags: N-terminal 6xHis (pET28a); chain copies: 6; label: 32P 5' end.
The target of series [4] is T2, drDnaB (DnaB). Nature of the series: EMSA; 1 mM ATP; EMSA: 50 mM Tris-HCl pH 8.0, 75 mM KCl, 5 mM MgSO4, 0.1 mM DTT, +/- 1 mM ATP, ~30 nM 32P-DNA, 37 C 15 min. The note with it: protein: recombinant; tags: N-terminal 6xHis (pET28a); chain copies: 6; label: 32P 5' end.
Series [5] has as its target T3, recombinant drDnaA, purified (D. radiodurans, UniProt Q9RYE7 1-466).
T3 construct: DnaA of Deinococcus radiodurans, DR_0002
T3 sequence (looked up): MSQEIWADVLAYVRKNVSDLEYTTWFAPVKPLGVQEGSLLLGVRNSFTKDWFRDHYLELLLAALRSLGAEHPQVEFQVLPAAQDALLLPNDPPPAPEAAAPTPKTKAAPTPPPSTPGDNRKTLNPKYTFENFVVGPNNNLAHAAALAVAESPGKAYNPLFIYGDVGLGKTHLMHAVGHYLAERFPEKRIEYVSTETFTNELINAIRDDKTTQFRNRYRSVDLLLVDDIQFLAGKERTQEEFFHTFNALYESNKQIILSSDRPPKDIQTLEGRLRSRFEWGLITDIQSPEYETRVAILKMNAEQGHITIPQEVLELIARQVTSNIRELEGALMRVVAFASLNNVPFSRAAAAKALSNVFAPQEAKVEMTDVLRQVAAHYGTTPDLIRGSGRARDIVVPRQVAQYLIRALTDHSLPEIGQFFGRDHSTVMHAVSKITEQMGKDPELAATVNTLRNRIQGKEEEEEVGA
Nature of the series: SPR; 20 μM PprA immobilised on a bare gold sensor chip by EDC-NHS at 20 °C (~200 response units); 4–20 μM drDnaA or drDnaB incubated with 1 mM ATP and 1 mM MgCl2 in the mobile phase; 20 mM Tris pH 7.6; Autolab Esprit. The note with it: both partners purified.

Series [6] addresses T4, recombinant drDnaB, purified (D. radiodurans, UniProt Q9RWW6 1-448).
T4 construct: DnaB of Deinococcus radiodurans, DR_0549; the drdnaB gene was PCR amplified from genomic DNA of D. radiodurans R1 and cloned in pET28a(+) at BamHI and EcoRI
T4 sequence (looked up): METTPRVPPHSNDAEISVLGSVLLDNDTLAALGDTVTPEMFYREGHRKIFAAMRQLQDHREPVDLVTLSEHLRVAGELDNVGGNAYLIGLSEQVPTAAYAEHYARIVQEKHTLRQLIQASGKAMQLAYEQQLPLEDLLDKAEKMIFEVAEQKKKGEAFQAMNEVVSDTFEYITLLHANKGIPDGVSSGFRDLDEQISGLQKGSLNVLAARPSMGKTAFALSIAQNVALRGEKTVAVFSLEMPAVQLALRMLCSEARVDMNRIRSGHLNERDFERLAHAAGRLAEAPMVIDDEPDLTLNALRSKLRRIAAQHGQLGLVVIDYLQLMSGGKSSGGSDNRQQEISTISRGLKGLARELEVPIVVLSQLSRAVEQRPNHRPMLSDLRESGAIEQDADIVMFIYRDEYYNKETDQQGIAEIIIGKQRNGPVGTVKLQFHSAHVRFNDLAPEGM
Described as above. The note with it: both partners purified.

Turning to oriCI 500 bp (13 DnaA boxes), the dissociation constant (Kd) in series [1] (1 mM ATP) was determined as 8230 nM; in series [1] (no ATP, +/- 1 mM ATP), 8890 nM.

B1: ssDNA oligo 99F (40 nt) (ssDNA)
DNA: GGAATTCCAATGAACCGCAAAACCGCAAAAACCGTACCGA
B1: the Kd with drDnaB (DnaB) [2] is 1020 ± 60 nM; with drDnaB (DnaB) [3] it was 3110 ± 110 nM; in the series with drDnaB (DnaB) [4], 1420 ± 50 nM.

B2: recombinant PprA (histidine-tagged PprA, His-PprA), purified (natural protein, D. radiodurans, UniProt O32504 1-300, looked up)
chain: MLPLAFLICSGHNKGSMARAKAKDQTDGIYAAFDTLMSTAGVDSQIAALAASEADAGTLDAALTQSLQEAQGRWGLGLHHLRHEARLTDDGDIEILTDGRPSARVSEGFGALAQAYAPMQALDERGLSQWAALGEGYRAPGDLPLAQLKVLIEHARDFETDWSAGRGETFQRVWRKGDTLFVEVARPASAEAALSDAAWDVIASIKDRAFQRELMRRSEKDGMLGALLGARHAGAKANLAQLPEAHFTVQAFVQTLSGAAARNAEEYRAALKTAAAALEEYQGVTTRQLSEVLRHGLRES
Regarding B2, the Kd in series [5] stood at 541 nM; in series [6], 971 nM.
